Assay results published in US20140335016A1.

Molecular target: amyloid-β 1-42 fibers (fAβ42) (human) (UniProt P05067)
Test: cell-based or functional assay

amyloid-β 1-42 fibers (fAβ42) (human), sequence (P05067 672-713 limits assumed): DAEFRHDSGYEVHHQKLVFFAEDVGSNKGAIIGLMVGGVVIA

“M13 filamentous bacteriophage, Construct 2 (wild type M13 isolate, GenBank JX412914.1)” gave a filter trap assay, concentration that reduces aggregates to a similar level of 1.7 nM.
